Starred links: 1 amine or outer side, 2 acyl side, 3 side chain; linkers in the order of their positions; H or OH if unused. Non-standard residues stand in square brackets, D forms with d. Groups on a side chain read outwards from the residue. No end group written: not given here. *: point of attachment. C20 diacid = O=C(O)CCCCCCCCCCCCCCCCCCC(=O)*; C18 diacid = O=C(O)CCCCCCCCCCCCCCCCC(=O)*; γGlu = O=C(O)[C@H](CCC(=O)[*:2])N[*:1]; εLys = N[C@@H](CCCCN[*:1])C(=O)[*:2]; AEEA = NCCOCCOCC(=O)O; Aib = CC(C)(N)C(=O)O
Assays:
Experiment in all cases: cell-based or functional assay
[1] = biological target: T1, human neuropeptide Y2 (NPY2) receptor (human, UniProt P49146 1-381)
T1 sequence (looked up): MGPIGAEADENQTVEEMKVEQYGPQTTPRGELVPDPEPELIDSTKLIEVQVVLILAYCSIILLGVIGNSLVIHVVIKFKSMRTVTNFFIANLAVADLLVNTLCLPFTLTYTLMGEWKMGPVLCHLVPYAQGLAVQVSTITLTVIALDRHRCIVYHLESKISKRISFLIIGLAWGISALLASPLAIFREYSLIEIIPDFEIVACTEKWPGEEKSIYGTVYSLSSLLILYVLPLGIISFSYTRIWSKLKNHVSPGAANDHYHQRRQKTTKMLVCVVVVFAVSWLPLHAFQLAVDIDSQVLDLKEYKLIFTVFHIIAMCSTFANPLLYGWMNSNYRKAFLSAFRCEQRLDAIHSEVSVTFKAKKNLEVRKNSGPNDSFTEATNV

[2] = biological target: human GLP-1 receptor (human, UniProt P43220 24-463)
[3] = biological target: T2, human GIP receptor (human, UniProt P48546 22-466)
T2 sequence (looked up): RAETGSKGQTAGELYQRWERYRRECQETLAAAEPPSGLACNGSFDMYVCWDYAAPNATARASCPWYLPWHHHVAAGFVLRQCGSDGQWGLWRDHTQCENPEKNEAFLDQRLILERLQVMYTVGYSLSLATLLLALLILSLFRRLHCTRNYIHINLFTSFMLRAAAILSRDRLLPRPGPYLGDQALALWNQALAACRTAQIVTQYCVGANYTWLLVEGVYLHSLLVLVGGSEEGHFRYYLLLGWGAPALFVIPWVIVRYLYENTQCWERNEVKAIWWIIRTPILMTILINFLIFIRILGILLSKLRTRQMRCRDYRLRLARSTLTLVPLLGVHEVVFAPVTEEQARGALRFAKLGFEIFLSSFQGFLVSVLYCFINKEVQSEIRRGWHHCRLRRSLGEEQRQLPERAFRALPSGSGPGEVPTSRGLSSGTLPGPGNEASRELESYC

Row | Binder | EC50, CreLuc assay, 0.5% hP [1] [nM] | EC50, CreLuc assay, 100% hP [1] [nM] | EC50, CreLuc assay, 0.5% hP [2] [nM] | EC50, CreLuc assay, 100% hP [2] [nM] | EC50, CreLuc assay, 0.5% hP [3] [nM] | EC50, CreLuc assay, 100% hP [3] [nM]
1 | YXEGTFTSDYSIXLEKQAQXAFVEWLIKGGPSEYVSIRHYYNWLTRQRY (Aib at 2, 13, 20; K28 side chain: C20DA-gGlu-gGlu-gGlu-gGlu-gGlu-gGlu-eLys; C-terminal NH2) [Compound 42] | 8.82 | 19.1 | 0.36 | 7.15 | 0.15 | 1.34
2 | Y[Aib]EGTFTSDYSI[Aib]LEKQAQ[Aib]EFVQWLIK([εLys-γGlu-γGlu-γGlu-γGlu-γGlu-γGlu-γGlu-C20 diacid])GGPSSGASLRHYYNWLTRQRY-NH2 (also: TFA salt) [Compound 43] | 13.1 | 21.1 | 0.41 | 5.91 | 0.64 | 1.97
3 | YXEGTFTSDYSIXLEKQAQXAFVEWLIKGGPSSGQSXRHYYNWLTRQRY (Aib at 2, 13, 20, 37; K28 side chain: C20DA-gGlu-gGlu-gGlu-gGlu-gGlu-gGlu-eLys; C-terminal NH2) [Compound 44] | 9.35 | 24.5 | 0.07 | 2.12 | 0.05 | 1.14
4 | Y[Aib]EGTFTSDYSI[Aib]LEEQAQ[Aib]AFVQWLIK([εLys-AEEA-γGlu-γGlu-γGlu-γGlu-γGlu-C20 diacid])GGPSSGASLRHYYNWLTRQRY-NH2 (also: TFA salt) [Compound 45] | 17.2 | 46.5 | 0.11 | 1.6 | 0.14 | 1.15
5 | YXEGTFTSDYSIXLEKEAQXKFVEWLIKGGPSSGASLRHYYNWLTRQRY (Aib at 2, 13, 20; K28 side chain: C20DA-gGlu-gGlu-gGlu-gGlu-gGlu-gGlu-eLys; C-terminal NH2) [Compound 46] | 10.2 | 36 | 0.21 | 5.94 | 0.2 | 1.21
6 | YXEGTFTSDYSIXLEKQAQXAFVQWLIKGGPSSGVSLRHYYNWLTRQRY (Aib at 2, 13, 20; K28 side chain: C20DA-gGlu-gGlu-gGlu-gGlu-gGlu-gGlu-eLys; C-terminal NH2) [Compound 47] | 7.9 | 30.5 | 0.07 | 1.14 | 0.25 | 0.73
7 | Y[Aib]EGTFTSDYSI[Aib]LEKQAQ[Aib]AFVQWLIKGGQRYYASLRHYYNWLTRQRY-NH2 (not fully specified (residue 28); also: TFA salt) [Compound 6] | 16.9 | 86.7 | 0.9 | 42.8 | 2.99 | 31.1
8 | YXEGTFTSDYSIXLEKQAQXAFVEWLIKGGPSEPQSIRHYYNWLTRQRY (Aib at 2, 13, 20; K28 side chain: C20DA-gGlu-gGlu-gGlu-gGlu-gGlu-gGlu-eLys; C-terminal NH2) [Compound 48] | 9.77 | 35.2 | 0.07 | 3.1 | 0.07 | 0.68
9 | YXEGTFTSDYSIXLEKQAQXAFVEWLIKGGPSSGESXRHYYNWLTRQRY (Aib at 2, 13, 20, 37; K28 side chain: C20DA-gGlu-gGlu-gGlu-gGlu-gGlu-gGlu-eLys; C-terminal NH2) [Compound 49] | 12.5 | 36.8 | 0.12 | 2.08 | 0.07 | 1.25
10 | YXEGTFTSDYSIXLEKQAQXAFVEWLIKGGPSSYESLRHYYNWLTRQRY (Aib at 2, 13, 20; K28 side chain: C20DA-gGlu-gGlu-gGlu-gGlu-gGlu-gGlu-eLys; C-terminal NH2) [Compound 50] | 11.8 | 52.5 | 0.13 | 3.75 | 0.12 | 1.47
11 | YXEGTFTSDYSIXLEKQAEXAFVQWLIKGGPSSGASLRHYYNWLTRQRY (Aib at 2, 13, 20; K28 side chain: C18DA-gGlu-gGlu-gGlu-gGlu-gGlu-gGlu-eLys; C-terminal NH2) [Compound 51] | 13.8 | 42.2 | 0.15 | 4.66 | 0.23 | 1.37
12 | Y[Aib]EGTFTSDYSI[Aib]LEKQAQ[Aib]AFVQWLIK([AEEA-AEEA-Glu-Glu-Glu-Glu-C18 diacid])GGPESGASLRHYYNWLTRQRY-NH2 (also: TFA salt) [Compound 52] | 18.7 | 93.5 | 0.09 | 3.17 | 0.12 | 0.65
13 | YXEGTFTSDYSIXLEKQAQXAFVQWLIKGGPESGASLRHYYNWLTRQRY (Aib at 2, 13, 20; K28 side chain: C18DA-gGlu-gGlu-gGlu-gGlu-gGlu; C-terminal NH2) [Compound 53] | 13.2 | 50.6 | 0.09 | 3.46 | 0.13 | 1.38
14 | Y[Aib]EGTFTSDYSI[Aib]LEKQAE[Aib]AFVQWLIKGGPSEPASLRHYYNWLTRQRY-NH2 (not fully specified (residue 28); also: TFA salt) [Compound 54] | 14 | 60.1 | 0.22 | 7.71 | 0.24 | 1.4
15 | Y[Aib]EGTFTSDYSI[Aib]LEKQAQ[Aib]AFVQWLIKGGPESGASLRHYYNWLTRQRY-NH2 (not fully specified (residue 28); also: TFA salt) [Compound 55] | 16 | 53.4 | 0.09 | 4.17 | 0.12 | 0.82
16 | Y[Aib]EGTFTSDYSI[Aib]LEKQAQ[Aib]EFVEWLIK([AEEA-AEEA-γGlu-γGlu-γGlu-γGlu-C18 diacid])GGPSSPASLRHYYNWLTRQRY-NH2 (also: TFA salt) [Compound 56] | 27.2 | 48.8 | 0.25 | 8.97 | 0.27 | 1.02
17 | Y[Aib]EGTFTSDYSI[Aib]LEKQAQ[Aib]AFVQWLIK([AEEA-AEEA-γGlu-γGlu-γGlu-γGlu-C18 diacid])GGPEEPASLRHYYNWLTRQRY-NH2 (also: TFA salt) [Compound 57] | 9.74 | 33.6 | 0.14 | 6.45 | 0.18 | 1.17
18 | Y[Aib]EGTFTSDYSI[Aib]LEEEAQ[Aib]AFVQWLIK([εLys-εLys-γGlu-γGlu-γGlu-γGlu-γGlu-C20 diacid])GGPSSGASLRHYYNWLTRQRY-NH2 (also: TFA salt) [Compound 7] | 16.9 | 36.7 | 0.13 | 1.58 | 0.23 | 0.63
19 | Y[Aib]EGTFTSDYSI[Aib]LEKQAQ[Aib]AFVQWLIK([AEEA-AEEA-γGlu-γGlu-γGlu-γGlu-C18 diacid])GGPESGASLRHYYNWLTRQRY-NH2 (also: TFA salt) [Compound 58] | 10.2 | 22.8 | 0.05 | 2 | 0.24 | 0.31
20 | Y[Aib]EGTFTSDYSI[Aib]LEKQAQ[Aib]AFVQWLIKGGPSYYASLRHYYNWLTRQRY-NH2 (not fully specified (residue 28); also: TFA salt) [Compound 59] | 10.8 | 29.9 | 0.39 | 8.81 | 0.49 | 5.75

Reference: patent publication US20240247080A1, “GLP1/GIP/NPY2 RECEPTOR TRIPLE AGONISTS” (Boehringer Ingelheim International GmbH, priority 2022, published 2024)
